Reference: patent publication US20220017608A1

What was measured:
Assay in all cases: Biacore 3000, 25 °C, alanine scan: N-biotinylated peptide on SA chip, G1 Fab titrated; fold loss versus wild-type 25-37 fragment
[1] = biological target: T1, S34A
T1 sequence (peptide, N-terminal biotin): NNFVPTNVGAKAF

[2] = biological target: T2, F37A
T2 sequence (peptide, N-terminal biotin): NNFVPTNVGSKAA

[3] = biological target: T3, G33A
T3 sequence (peptide, N-terminal biotin): NNFVPTNVASKAF

B1: Fab fragments of antibody G1 (Fab, V domains shown)
VH: EVQLVESGGGLVQPGGSLRLSCAASGFTFSNYWISWVRQAPGKGLEWVAEIRSESDASATHYAEAVKGRFTISRDNAKNSLYLQMNSLRAEDTAVYYCLAYFDYGLAIQNYWGQGTLVTVSS
VL: EIVLTQSPATLSLSPGERATLSCKASKRVTTYVSWYQQKPGQAPRLLIYGASNRYLGIPARFSGSGSGTDFTLTISSLEPEDFAVYYCSQSYNYPYTFGQGTKLEIK
[1]
  Fold loss in affinity: 10.9 fold
[2]
  Fold loss in affinity: 339 fold
[3]
  Fold loss in affinity: 504 fold
